± gives the standard deviation of the averaged measurements.
test system: ATP; experiment: switch fluorescence ratio, 500 uM ATP over buffer (Cy3 cluster intensity, sum of 5 cycles each) (fold (ratio)); higher = stronger signal-on switching upon ATP binding; sequences stand for … in TCGTCGGCAGCGTCAGATGTGTATAAGAGACAGTTTTTTTTTTTTTTTTTTTTTTTTT…TC; details: aptamer strand: ATP DNA aptamer (quencher-CACCTGGGGGAGTATTGCGGAGGAAGG + anchor), 100 nM annealed; ATP concentration: 500 uM
How it was run: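 Values give the fluorescence ratio for each switch-domain sequence, averaged from per-cluster ratios of summed target-cycle to summed buffer-cycle Cy3 intensity. The Cy3-labelled switching-strand clusters sat on a modified Illumina MiSeq flow-cell, were annealed to 100 nM quencher-labelled ATP aptamer, and were imaged in selection buffer, then after 15 min with 500 uM ATP at 22 °C. Five cycles ran with NaOH stripping and re-annealing between them, and clusters outside 100-1000 RFU were excluded.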
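Also: ATP exposure 15 min at 22 °C before imaging.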

In order of rising switch fluorescence ratio:
1. TTCGTGGCCC  0.9572 ± 0.003
2. TTGATGCAGC  0.958 ± 0.054
3. TTCGGTTGTG  0.96 ± 0.013
4. TTGAGGGTTC  0.96 ± 0.022
5. TTGAGGAGGG  0.962 ± 0.11
6. TTGAGTCGTC  0.962 ± 0.011
7. TTCCATGAGT  0.963 ± 0.019
8. TTCCAGATTC  0.964 ± 0.013
9. TTCGTAGTTT  0.964 ± 0.023
10. TTGAAAAAGG  0.968 ± 0.018
11. TTGAATGCAT  0.969 ± 0.13
12. TTCATGAGTG  0.9696 ± 0.0051
13. TTCTAGTCGT  0.971 ± 0.019
14. TTGAGACTGT  0.971 ± 0.052
15. TTCCATATGT  0.975 ± 0.021
16. TTCGTATTGT  0.975 ± 0.018
17. TTGATGATCC  0.9781 ± 0.0034
18. TTGAAAATGA  0.979 ± 0.016
19. TTCCTTTAGG  0.98 ± 0.06
20. TTCGTCTTTT  0.98 ± 0.016
21. TTCGGGATCG  0.981 ± 0.057
22. TTCGGGGAT  0.982 ± 0.032
23. TTGAATTAAG  0.982 ± 0.032
24. TTGAGATAAG  0.9819 ± 0.0014
25. TTGATACCAG  0.982 ± 0.013
26. TTGATGGGGA  0.982 ± 0.014
27. TTCGGGGCTT  0.983 ± 0.035
28. TTCTGGGTCT  0.9833 ± 0.0042
29. TTGAGGAAGG  0.9835 ± 0.0018
30. TTCGGTTTTC  0.984 ± 0.033
31. TTCTTGAGTA  0.984 ± 0.019
32. TTGACGTCGG  0.985 ± 0.018
33. TTGAGTTTTG  0.985 ± 0.031
34. TTCGACCTAG  0.986 ± 0.014
35. TTGAATTGCT  0.986 ± 0.032
36. TTCGGTCGGG  0.987 ± 0.028
37. TTCTATTTCT  0.9872 ± 0.0039
38. TTGATCTGCT  0.987 ± 0.023
39. TTGAGGGTGA  0.988 ± 0.016
40. TTGATTGGGG  0.989 ± 0.029
41. TTCATTGGGG  0.99 ± 0.018
42. TTGAATTTCT  0.992 ± 0.016
43. TTCGGTTTTG  0.993 ± 0.031
44. TTCGTACTAT  0.993 ± 0.039
45. TTGAAGTAAG  0.994 ± 0.019
46. TTGAGGGTTT  0.994 ± 0.029
47. TTCCCATTTT  0.995 ± 0.013
48. TTCGGTTTGG  0.9952 ± 0.0061
49. TTCGTGTTAT  0.995 ± 0.021
50. TTCTAAAAAG  0.995 ± 0.035
51. TTGAGACTCG  0.995 ± 0.019
52. TTGATTTAGG  0.995 ± 0.028
53. TTCATTACGT  0.996 ± 0.029
54. TTCGGAGGGC  0.996 ± 0.031
55. TTCGGGCTGT  0.996 ± 0.011
56. TTCGGTAGCG  0.996 ± 0.046
57. TTCGTTAGCG  0.996 ± 0.022
58. TTGAGATTTT  0.996 ± 0.023
59. TTCGGGATTG  0.997 ± 0.024
60. TTCTGCAGGG  0.997 ± 0.043
61. TTGACAAGGG  0.997 ± 0.015
62. TTCGGGCCGA  0.998 ± 0.017
63. TTGAAGGGTT  0.9978 ± 0.0033
64. TTGATGTCAA  0.999 ± 0.056
65. TTCCCTAGTT  1.004 ± 0.0029
66. TTCCGGGCTG  1 ± 0.02
67. TTCCGGGGGT  1 ± 0.015
68. TTCGCGCTTT  1 ± 0.036
69. TTCGGGAGCC  1 ± 0.024
70. TTCGGGTTTG  1 ± 0.034
71. TTCGTAGTGG  1 ± 0.013
72. TTCTGAGGGA  1 ± 0.03
73. TTCTTACGTC  1 ± 0.011
74. TTCTTGGCGG  1 ± 0.07
75. TTCTTTGTGA  1 ± 0.054
76. TTGACTGGAG  1 ± 0.011
77. TTGACTTTAA  1 ± 0.083
78. TTGAGAAATT  1 ± 0.014
79. TTGAGACTAG  1 ± 0.015
80. TTGAGGGCAG  1 ± 0.034
81. TTGAGGTCGG  1.005 ± 0.0066
82. TTGATAGGCC  0.9998 ± 0.0049
83. TTGATGTCCC  1 ± 0.027
84. TTGATTTTAA  1 ± 0.014
85. TTCATCGTAT  1.01 ± 0.015
86. TTCCGGAAAA  1.01 ± 0.05
87. TTCCTATGTG  1.01 ± 0.036
88. TTCGAGGGGG  1.01 ± 0.031
89. TTCGGGCGAT  1.01 ± 0.013
90. TTCGGTTACG  1.01 ± 0.011
91. TTCGTCCTGG  1.01 ± 0.056
92. TTCGTTCTTT  1.005 ± 0.0043
93. TTCTAATGGT  1.01 ± 0.073
94. TTCTACTTTT  1.01 ± 0.053
95. TTGAACCCGA  1.01 ± 0.023
96. TTGAATGAAT  1.015 ± 0.0031
97. TTGAGATTGA  1.01 ± 0.02
98. TTGAGATTTG  1.01 ± 0.013
99. TTGAGGGACT  1.01 ± 0.018
100. TTGAGGGATC  1.01 ± 0.06
101. TTGAGGTGCG  1.01 ± 0.026
102. TTGAGTGGTT  1.01 ± 0.092
103. TTGATAGGGT  1.01 ± 0.026
104. TTGATAGTTG  1.01 ± 0.049
105. TTGATATTTG  1.01 ± 0.039
106. TTGATCAGAG  1.01 ± 0.024
107. TTGATTTTTG  1.01 ± 0.03
108. TTGCACAATT  1.01 ± 0.057
109. TTCATTTCTG  1.02 ± 0.039
110. TTCATTTTAG  1.02 ± 0.031
111. TTCCAAAAGG  1.02 ± 0.054
112. TTCCCTAATC  1.02 ± 0.067
113. TTCCGGAGGG  1.02 ± 0.063
114. TTCGGTAAGG  1.02 ± 0.013
115. TTCGGTTTTT  1.02 ± 0.011
116. TTGACTGGAA  1.02 ± 0.011
117. TTGAGTGGAG  1.02 ± 0.029
118. TTGATCAGTA  1.02 ± 0.02
119. TTGATGGGTT  1.02 ± 0.011
120. TTCATTGAGT  1.028 ± 0.0048
121. TTCCGGTTCT  1.03 ± 0.013
122. TTCCGTTCAG  1.03 ± 0.0075
123. TTCCGTTGGG  1.028 ± 0.0032
124. TTCGACTAGC  1.03 ± 0.03
125. TTCGAGCCGA  1.029 ± 0.0064
126. TTCGCAGTCA  1.03 ± 0.052
127. TTCGGGGCGC  1.03 ± 0.065
128. TTCGTGGGTG  1.03 ± 0.075
129. TTCGTTCCGT  1.03 ± 0.019
130. TTCTCGATCT  1.03 ± 0.037
131. TTCTGAGGGG  1.03 ± 0.035
132. TTCTGTATTG  1.03 ± 0.035
133. TTGAAAAATT  1.03 ± 0.016
134. TTGAATTATT  1.03 ± 0.013
135. TTGACAATGT  1.03 ± 0.095
136. TTGACGTGTT  1.03 ± 0.047
137. TTCCACTTGA  1.04 ± 0.047
138. TTCCGGGGAT  1.04 ± 0.044
139. TTCGCGCGGT  1.04 ± 0.077
140. TTCGGGTGGT  1.04 ± 0.05
141. TTCTACTTTG  1.035 ± 0.0074
142. TTGAAAAAAC  1.04 ± 0.074
143. TTGAGGCGGA  1.04 ± 0.033
144. TTCGCTACGG  1.05 ± 0.029
145. TTCTGGAAAA  1.05 ± 0.064
146. TTCTGGGGCA  1.05 ± 0.055
147. TTCTTGGACG  1.05 ± 0.16
148. TTCGGGCAGG  1.06 ± 0.054
149. TTCTTTTGTA  1.06 ± 0.076
150. TTCGCCAATG  1.07 ± 0.03
151. TTGATTGGCG  1.07 ± 0.058
152. TTCCAGGGGG  1.08 ± 0.089
153. TTCCGGCGGA  1.08 ± 0.026
154. TTCGGCTGCA  1.08 ± 0.064
155. TTCGGGACCC  1.08 ± 0.1
156. TTGAAGGGGT  1.08 ± 0.1
157. TTGACCTGAG  1.08 ± 0.013
158. TTCGTAAAAA  1.09 ± 0.089
159. TTCGTCGGTA  1.09 ± 0.15
160. TTCGAAGGAA  1.1 ± 0.028
161. TTCGGGTATT  1.1 ± 0.2
162. TTGACAAACG  1.1 ± 0.054
163. TTCATTTGTT  1.11 ± 0.16
164. TTCCGAAAGA  1.11 ± 0.066
165. TTGAGCGGGT  1.11 ± 0.091
166. TTGAGCTTCA  1.115 ± 0.0063
167. TTGACCAATA  1.12 ± 0.016
168. TTGACGGGGA  1.12 ± 0.17
169. TTGATCGTGC  1.12 ± 0.18
170. TTCCGTATTT  1.15 ± 0.012
171. TTCGCTGGTA  1.15 ± 0.22
172. TTCTTCTCAA  1.15 ± 0.065
173. TTGACAGGTT  1.15 ± 0.19
174. TTCCGGGCCC  1.16 ± 0.041
175. TTCCTGAGTT  1.16 ± 0.21
176. TTCCTTTTAC  1.16 ± 0.008
177. TTGAAAAAAA  1.2 ± 0.27
178. TTCCCGGGGA  1.24 ± 0.4
179. TTCTCCGGGT  1.24 ± 0.32
180. TTGAGAGCAG  1.24 ± 0.11
181. TTCCGATGGA  1.33 ± 0.26
182. TTGCAATTTT  1.36 ± 0.46
183. TTCCCGGCAG  1.38 ± 0.47
184. TTCCTACGAT  1.42 ± 0.56
185. TTGCACTACT  1.5 ± 0.025
186. TTCATCCGGT  1.52 ± 0.091
187. TTGAAGGCAA  1.59 ± 0.076
188. TTCTACGGTA  1.69 ± 0.68
189. TTCCTCCCCT  1.7 ± 0.82
190. TTGAGAGCAA  1.72 ± 0.18
191. TTCTTGCTAC  1.78 ± 0.036
192. TTGAAGAAAA  1.97 ± 1.3
193. TTGAGCATAT  2.12 ± 1.2
194. TTCGCAACAG  2.19 ± 0.67
195. TTCGTTATAC  2.29 ± 1.1
196. TTCTGCGCCC  2.52 ± 2
197. TTCTCTGTAA  2.66 ± 1.6
198. TTCCTCGCTT  2.75 ± 1.6
199. TTCCCCAGGG  3.63 ± 1.6
200. TTCCAGGCAA  4.47 ± 0.45
